In paper PMC13378486, “Design and Synthesis of Peptide‐Polyester Conjugates for Cell‐Mediated Scaffold Degradation” (Advanced Healthcare Materials, 2026):

Experiments:
[1] = tested on: Collagenase Type I (Clostridium histolyticum); experiment: In vitro degradation of peptide-PCL samples with collagenase; type: in vitro ADME; settings: 37°C, mean ± SD; for Mass loss in collagenase: 2 mg/mL collagenase in ZB, 21 days, washed, lyophilized, weighed, n = 4; for Cumulative Cy3 release / Cumulative Cy3 release as % of the total Cy3 in the sample: 10 mm solvent-cast disks, 2 mg/mL collagenase in 1X ZB, 5% CO2, 21 days, fluorescence ex 550/em 580 nm, n = 6
Method: (§1) Samples were pinned to silicone elastomer‐coated 24‐well plates using 0.1 mm dissection pins. The degradation behavior of the samples in the presence of collagenase was assessed by immersing pinned samples in 2 mg/mL collagenase in 1X Zymogram Developing Buffer (ZB). Solutions (1 mL) were collected and changed after the first day of incubation then after every 3–4 days. Samples were placed in an incubator (37°C, 5% CO2) for up to 21 days. Samples were also exposed to ZB as a baseline control.
(§2) Samples were weighed before and after 21 days of incubation with ZB or collagenase. After the 21‐day incubation period, samples were collected and washed three times with ultrapure water to remove residual enzymes or salts. Following washing, samples were lyophilized and subsequently weighed to determine the final mass. Percent mass loss was calculated based on the difference between initial and final masses.

[2] = type: in vitro ADME
Method: as §1, §2

multiple cell types = settings: prior peptide screening methods; cited from earlier work
Description: We also included a scrambled version of Fast (LTRLMEKRRKV; ScrFast) in which the positions of uncharged amino acids (L, M, V) were exchanged with the charged amino acids (E, K, R). We quantified degradation of these four peptides with different mac ...

| Substance | Mass loss in collagenase [1] | Cumulative Cy3 release [1] | Cumulative Cy3 release as % of the total Cy3 in the sample [1] | Mass loss in ZB [2] | Peptide degradation behavior in prior peptide screening (multiple cell types) |
| --- | --- | --- | --- | --- | --- |
| CK(Cy3)KRVKRRL↓LMETC [Fast‐PCL, linear PCL‐PEG‐peptide‐PEG‐PCL conjugate of Cy3‐modified Fast with maleimide‐functionalized PCL (25 kDa) / PEG (5 kDa); tested as solvent‐cast disks with RGDS‐PCL] | 22.1% ± 1.2% | 20.38 ± 2.17 nmol | 25.77% ± 3.70% | 16.5% ± 1.6% | – |
| PPDKTSPEPA [Control] | – | – | – | – | negligible degradation behavior |
| CK(Cy3)LTRLMEKRRKVC [ScrFast‐PCL, linear PCL‐PEG‐peptide‐PEG‐PCL conjugate of Cy3‐modified ScrFast; tested as solvent‐cast disks with RGDS‐PCL] | 18.9% ± 3.8% | 8.70 ± 0.92 nmol | 11.31% ± 1.01% | 15.2% ± 7.8% | – |
